Normalised SPOT signal, Boehringer light units (BLU); mean over the file's lines of this peptide data for eleven molecules are collected here from publication PMC314469, “Protein Interaction Networks by Proteome Peptide Scanning” (PLoS Biology, 2004).

To fix the notation:
B1: YLR328W 26-39 (peptide)
chain: SKIPKSIPIIPYVL
B2: YBR017C 618-631 (peptide)
chain: SLGERFMPMAPEVY
B3: YNR023W 296-309 (peptide)
chain: SILRKSSPEEPFMS
B4: YNL239W 287-300 (peptide)
chain: SKYAKLDPSTPVSL
B5: YDR345C 274-287 (peptide)
chain: SKVNKVAPDHPFIQ
B6: YAL017W 1333-1346 (peptide)
chain: SILNRSVPKRPTID
B7: YDR239C 144-157 (peptide)
chain: SKIKRSRPPPPPMD
B8: YGL233W 770-783 (peptide)
chain: SIIPRIFPSTPGTI
B9: YER164W 1316-1329 (peptide)
chain: SKRMKALPKGPAAL
B10: YNL224C 454-467 (peptide)
chain: SLIPKIEPAEPTYS
B11: YIR018W 25-38 (peptide)
chain: SKNWKLPPRLPHRA

In one test the target is T1, Boi1 SH3 (BOI1_YEAST), P38041.
T1 chain: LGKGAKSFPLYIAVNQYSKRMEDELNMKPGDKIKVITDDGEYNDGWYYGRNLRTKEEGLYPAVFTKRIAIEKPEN
Put plainly: SPOT array.
Consider B1, for which the normalised SPOT signal, Boehringer light units (BLU); mean over the file's lines of this peptide worked out at 151.

In turn, B2 gave a normalised SPOT signal, Boehringer light units (BLU); mean over the file's lines of this peptide of 49.7.

Regarding B3, the normalised SPOT signal, Boehringer light units (BLU); mean over the file's lines of this peptide turned out to be 132.

B4: the normalised SPOT signal, Boehringer light units (BLU); mean over the file's lines of this peptide amounted to 101.

Regarding B5, the normalised SPOT signal, Boehringer light units (BLU); mean over the file's lines of this peptide stood at 122.

Consider B6, for which the normalised SPOT signal, Boehringer light units (BLU); mean over the file's lines of this peptide worked out at 958.

B7 showed a normalised SPOT signal, Boehringer light units (BLU); mean over the file's lines of this peptide of 1250.

On to B8, for which the normalised SPOT signal, Boehringer light units (BLU); mean over the file's lines of this peptide came out at 176.

In turn, B9 gave a normalised SPOT signal, Boehringer light units (BLU); mean over the file's lines of this peptide of 1730.

In turn, B10 showed a normalised SPOT signal, Boehringer light units (BLU); mean over the file's lines of this peptide of 170.

Consider B11, for which the normalised SPOT signal, Boehringer light units (BLU); mean over the file's lines of this peptide came to 7830.

For the next test, the target named is Sho1 SH3 (SHO1_YEAST), P40073. Put plainly: SPOT array.
Sequence of Sho1 SH3 (SHO1_YEAST), P40073 (P40073 295-366): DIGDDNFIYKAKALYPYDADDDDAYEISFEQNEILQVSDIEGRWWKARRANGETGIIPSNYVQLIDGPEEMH
On to B1, for which the normalised SPOT signal, Boehringer light units (BLU); mean over the file's lines of this peptide was 76.7.

In turn, B2 displayed a normalised SPOT signal, Boehringer light units (BLU); mean over the file's lines of this peptide of 3.7.

B3 gave a normalised SPOT signal, Boehringer light units (BLU); mean over the file's lines of this peptide of 54.4.

With B4, the normalised SPOT signal, Boehringer light units (BLU); mean over the file's lines of this peptide stood at 32.6.

The molecule B5 gave a normalised SPOT signal, Boehringer light units (BLU); mean over the file's lines of this peptide of 0.

The molecule B6 registered a normalised SPOT signal, Boehringer light units (BLU); mean over the file's lines of this peptide of 96.4.

With B7, the normalised SPOT signal, Boehringer light units (BLU); mean over the file's lines of this peptide worked out at 167.

Consider B8, for which the normalised SPOT signal, Boehringer light units (BLU); mean over the file's lines of this peptide is 632.

B9: the normalised SPOT signal, Boehringer light units (BLU); mean over the file's lines of this peptide was determined as 6310.

With B10, the normalised SPOT signal, Boehringer light units (BLU); mean over the file's lines of this peptide was 33.4.

For B11, the normalised SPOT signal, Boehringer light units (BLU); mean over the file's lines of this peptide was determined as 4940.

The target of the next test is T2, Rvs167 SH3 (RV167_YEAST), P39743.
T2 chain: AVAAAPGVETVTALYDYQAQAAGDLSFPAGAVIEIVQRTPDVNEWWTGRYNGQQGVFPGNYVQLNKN
The test is described as follows: SPOT array.
As to B1, the normalised SPOT signal, Boehringer light units (BLU); mean over the file's lines of this peptide stood at 73.2.

Take B2: the normalised SPOT signal, Boehringer light units (BLU); mean over the file's lines of this peptide was found to be 32.8.

As to B3, the normalised SPOT signal, Boehringer light units (BLU); mean over the file's lines of this peptide turned out to be 162.

Consider B4, for which the normalised SPOT signal, Boehringer light units (BLU); mean over the file's lines of this peptide amounted to 42.2.

B5 registered a normalised SPOT signal, Boehringer light units (BLU); mean over the file's lines of this peptide of 12.9.

As to B6, the normalised SPOT signal, Boehringer light units (BLU); mean over the file's lines of this peptide was found to be 28300.

The molecule B7 showed a normalised SPOT signal, Boehringer light units (BLU); mean over the file's lines of this peptide of 185.

Consider B8, for which the normalised SPOT signal, Boehringer light units (BLU); mean over the file's lines of this peptide was 369.

As to B9, the normalised SPOT signal, Boehringer light units (BLU); mean over the file's lines of this peptide was 204.

B10: the normalised SPOT signal, Boehringer light units (BLU); mean over the file's lines of this peptide was found to be 41.8.

The molecule B11 had a normalised SPOT signal, Boehringer light units (BLU); mean over the file's lines of this peptide of 10200.

The target in another test is T3, Yhr016c SH3 (YSC84_YEAST), P32793.
T3 chain: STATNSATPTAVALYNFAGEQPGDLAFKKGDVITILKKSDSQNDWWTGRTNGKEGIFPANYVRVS
The test is described as follows: SPOT array.
Molecule B1 came in with a normalised SPOT signal, Boehringer light units (BLU); mean over the file's lines of this peptide of 33.4.

Molecule B2 showed a normalised SPOT signal, Boehringer light units (BLU); mean over the file's lines of this peptide of 7.3.

In the case of B3, the normalised SPOT signal, Boehringer light units (BLU); mean over the file's lines of this peptide amounted to 22.1.

As for B4, the normalised SPOT signal, Boehringer light units (BLU); mean over the file's lines of this peptide stood at 48.5.

B5 had a normalised SPOT signal, Boehringer light units (BLU); mean over the file's lines of this peptide of 7.1.

On to B6, for which the normalised SPOT signal, Boehringer light units (BLU); mean over the file's lines of this peptide is 11900.

Turning to B7, the normalised SPOT signal, Boehringer light units (BLU); mean over the file's lines of this peptide was found to be 123.

In turn, B8 yielded a normalised SPOT signal, Boehringer light units (BLU); mean over the file's lines of this peptide of 32.6.

The molecule B9 gave a normalised SPOT signal, Boehringer light units (BLU); mean over the file's lines of this peptide of 114.

The molecule B10 registered a normalised SPOT signal, Boehringer light units (BLU); mean over the file's lines of this peptide of 8.7.

On to B11, for which the normalised SPOT signal, Boehringer light units (BLU); mean over the file's lines of this peptide was 21900.

For another test, the target named is T4, Myo5 SH3 (MYO5_YEAST), Q04439.
T4 chain: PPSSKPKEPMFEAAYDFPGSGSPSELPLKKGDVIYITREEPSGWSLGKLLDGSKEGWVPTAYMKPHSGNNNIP
The test is described as follows: SPOT array.
B1 displayed a normalised SPOT signal, Boehringer light units (BLU); mean over the file's lines of this peptide of 243.

As to B2, the normalised SPOT signal, Boehringer light units (BLU); mean over the file's lines of this peptide amounted to 140.

Molecule B3 showed a normalised SPOT signal, Boehringer light units (BLU); mean over the file's lines of this peptide of 144.

With B4, the normalised SPOT signal, Boehringer light units (BLU); mean over the file's lines of this peptide turned out to be 457.

For the molecule B5, the normalised SPOT signal, Boehringer light units (BLU); mean over the file's lines of this peptide was determined as 72.1.

B6 registered a normalised SPOT signal, Boehringer light units (BLU); mean over the file's lines of this peptide of 133.

As for B7, the normalised SPOT signal, Boehringer light units (BLU); mean over the file's lines of this peptide was determined as 5410.

In turn, B8 gave a normalised SPOT signal, Boehringer light units (BLU); mean over the file's lines of this peptide of 369.

On to B9, for which the normalised SPOT signal, Boehringer light units (BLU); mean over the file's lines of this peptide worked out at 822.

For the molecule B10, the normalised SPOT signal, Boehringer light units (BLU); mean over the file's lines of this peptide came out at 85.4.

Molecule B11 yielded a normalised SPOT signal, Boehringer light units (BLU); mean over the file's lines of this peptide of 5570.

The target in the next test is T5, Boi2 SH3 (BOI2_YEAST), P39969.
T5 chain: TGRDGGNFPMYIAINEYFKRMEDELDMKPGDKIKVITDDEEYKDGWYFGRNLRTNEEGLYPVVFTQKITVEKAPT
Put plainly: SPOT array.
Take B1: the normalised SPOT signal, Boehringer light units (BLU); mean over the file's lines of this peptide came to 25.9.

B2 returned a normalised SPOT signal, Boehringer light units (BLU); mean over the file's lines of this peptide of 51.3.

B3 yielded a normalised SPOT signal, Boehringer light units (BLU); mean over the file's lines of this peptide of 43.

As to B4, the normalised SPOT signal, Boehringer light units (BLU); mean over the file's lines of this peptide was 39.1.

B5: the normalised SPOT signal, Boehringer light units (BLU); mean over the file's lines of this peptide is 9.5.

In turn, B6 gave a normalised SPOT signal, Boehringer light units (BLU); mean over the file's lines of this peptide of 8.2.

For the molecule B7, the normalised SPOT signal, Boehringer light units (BLU); mean over the file's lines of this peptide came to 35.1.

The molecule B8 registered a normalised SPOT signal, Boehringer light units (BLU); mean over the file's lines of this peptide of 22.2.

The molecule B9 had a normalised SPOT signal, Boehringer light units (BLU); mean over the file's lines of this peptide of 66.1.

B10 showed a normalised SPOT signal, Boehringer light units (BLU); mean over the file's lines of this peptide of 25.6.

Molecule B11 registered a normalised SPOT signal, Boehringer light units (BLU); mean over the file's lines of this peptide of 29.8.

The next test has as its target T6, Yfr024 SH3 (LSB3_YEAST), P43603.
T6 chain: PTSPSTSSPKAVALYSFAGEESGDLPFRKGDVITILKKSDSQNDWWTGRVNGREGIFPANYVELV
Put plainly: SPOT array.
B1: the normalised SPOT signal, Boehringer light units (BLU); mean over the file's lines of this peptide was 42.7.

Turning to B2, the normalised SPOT signal, Boehringer light units (BLU); mean over the file's lines of this peptide stood at 15.8.

Molecule B3 displayed a normalised SPOT signal, Boehringer light units (BLU); mean over the file's lines of this peptide of 327.

With B4, the normalised SPOT signal, Boehringer light units (BLU); mean over the file's lines of this peptide came out at 26.4.

In turn, B5 showed a normalised SPOT signal, Boehringer light units (BLU); mean over the file's lines of this peptide of 13.5.

The molecule B6 had a normalised SPOT signal, Boehringer light units (BLU); mean over the file's lines of this peptide of 39200.

Turning to B7, the normalised SPOT signal, Boehringer light units (BLU); mean over the file's lines of this peptide came to 1450.

B8 showed a normalised SPOT signal, Boehringer light units (BLU); mean over the file's lines of this peptide of 448.

B9 came in with a normalised SPOT signal, Boehringer light units (BLU); mean over the file's lines of this peptide of 1540.

In turn, B10 returned a normalised SPOT signal, Boehringer light units (BLU); mean over the file's lines of this peptide of 1.

In turn, B11 returned a normalised SPOT signal, Boehringer light units (BLU); mean over the file's lines of this peptide of 39100.
